The values that follow come from the nanobody polyreactivity screen of Harvey et al. (2022).

The series is described as follows: yeast display, Sf9 membrane polyspecificity reagent, FACS + sequencing; frameworks hold sequencing errors. In short, it runs like this:
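After 36–48 hours of galactose induction, yeast (Saccharomyces cerevisiae BJ5465) displaying a synthetic nanobody library were stained at 4 °C for 1 hour with 10% biotinylated, detergent-solubilized Sf9 membrane reagent. Streptavidin microbeads enriched the stained cells before FACS sorting into low and high (top ~1%) gates on anti-HA and streptavidin fluorescence. Each clone's polyreactivity label reflects its gate of origin.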
Take “QVQLEESGGGLFQAGGSLRLSCAASGSTFVSNAMGWYRQAPGKDRELVAAISSSGGRTSYADSVKGRFTISRDNAKNTVYLQMNSLKPEDTAVYYCNRVSPGPDADLEFDYWGQGTQVTVSS”: the “polyreactivity (PSR sort gate)” value is “low polyreactivity”.

Take “QVQLEESGGGLGQAGGSLRLSCAASGRIFRDYAMGWSRQAPGKERELVAAITSGGTTYADSVKGRVTISRDNAKNTVYLQLNSLKPEDTAVYYCNVAWIWGKFDYWGQGTQVTVSS”: the “polyreactivity (PSR sort gate)” value is given as “high polyreactivity”.

Turning to “QVQLEESGGGLGQAGGSLRLTCAASGSIFRQYAMGWYRQAPGKERDLVATISRSGGSTYYADSVKGRFTISRDNAKNTVYLQLNSLKPEDTAVYYCAASRYNKSYREWWVGSWGQGTQVTVSS”, the “polyreactivity (PSR sort gate)” value is recorded as “high polyreactivity”.

In the case of “QVQLEESGGGLLQAGGSLRLSCAASGSTFLRNAKGWYRQAPGKERELVATITISGGSTHYADSVKGRFTISRDNAKNTVYLPMNSLKPEDTAVYYCGTPRYPSYDYWGQGTQVTVSS”, the “polyreactivity (PSR sort gate)” value is recorded as “low polyreactivity”.

Consider “QVQLEESGGGLVKARGSLRITCAASGSTFDYYTMGWYRQAPGKERELFAAINSSGGRTYYADSVKGRFTISRDTAKNTVYLQMNSLIPEDTAVYDCAAVTLCLGRYPYTYTSRYEYWGLGTQVTVSS”, for which the “polyreactivity (PSR sort gate)” value is “high polyreactivity”.

As for “QVQLEESGGGLVQAGASLRLSCAASGRTFPRYAMGWSRQAPGKERELVAAITSSGGSTNYADSVKGRFTISRENATNSVYLQMYSLKPEDTAVYYCNARFPTQYILWSSSPYGYWGQGTQVTVSS”, the “polyreactivity (PSR sort gate)” value is “low polyreactivity”.

On to “QVQLEESGGGLVQAGCSLRLSCAASGRIFHFYAIGRYRQAPGKERELVAVINGGGSTYYADSVKGRFTISRDNAKNTVYLQMNSLKPEVTAVYYCAADVYLSRYEKYGYWGQGTQVTVSS”, for which the “polyreactivity (PSR sort gate)” value is on record as “high polyreactivity”.

Consider “QVQLEESGGGLVQAGGIRRLSCAASGRIFPYYAMGWYRLAPGKERELVAAISLSGGSTYYADSVKGRFTISRDTAKMSGYLQMTSLKPEDTAVYYGNAVASTSGYYWYPGLGYDYCGQGTQVTVSS”, for which the “polyreactivity (PSR sort gate)” value was “low polyreactivity”.

On to “QVQLEESGGGLVQAGGRLRLSCAASGGNFNYYPMGWYREAPGKERELVAAITRGGSTYYADSVKGRFTISRDNAKNTVYLQMNSLKPEDTAVYYCAAGWRRYDKSPLEGSWGQGTQVTLSS”, for which the “polyreactivity (PSR sort gate)” value is reported as “high polyreactivity”.

In the case of “QVQLEESGGGLVQAGGRLRLSCAASGIIFGYYAIGWYRQAPGKERELVAAISSGGTTSYADSVKGRFTISRDNAKNTVYLQMNSLKPEDTSVYYCSARDWYDGFYYWGQGTQVTVSS”, the “polyreactivity (PSR sort gate)” value was “low polyreactivity”.

For “QVQLEESGGGLVQAGGRLRLSCAASGNTFQVYAMGWSRQASGTERELVATITSGGSTNYADSVKGRFTISRDNAKNTVYLQMNSQIPDDTAVYYCARRAVYSKRRYDYWGQGTQVTVSS”, the “polyreactivity (PSR sort gate)” value is listed as “low polyreactivity”.

On to “QVQLEESGGGLVQAGGRLRLSCAASGRTFGANAMGWYRQAPGKERELVATIRRGGSTYYADSVKGRFTISRDNAKNTFYLQMHSLKPEDTAVYYCATQYHSYAKEYDYWGQGTQVTVSS”, for which the “polyreactivity (PSR sort gate)” value is on record as “low polyreactivity”.

“QVQLEESGGGLVQAGGRLRLSCAASGSTCGTNVMGGARQAPGKERELVAAFSNGGSTNYADSVKGRFTISRDNAKITDYLQMNSLKPEDTAVYYCEFDYWGQGTQVTVSS”: the “polyreactivity (PSR sort gate)” value is “low polyreactivity”.

On to “QVQLEESGGGLVQAGGSHRLSCAASGIIFRWYTMGWYRQAPGKERELVAAISTSTGSTYYADSVKGRFTISRDNAKNTVYLQMNSLKPEDTGVYYCAAEYAYWNYESYYWGQGTQVNVSS”, for which the “polyreactivity (PSR sort gate)” value is on record as “high polyreactivity”.

In the case of “QVQLEESGGGLVQAGGSHRLSCAASGSIFGPNAMGWSRQAPGKERELVAAISWTGGRTYYADSVKGRFTISRDNAYNTVYLQMNSLKPEDTAVYDCAVKGHPCGQGTQVTVSS”, the “polyreactivity (PSR sort gate)” value was “low polyreactivity”.

As for “QVQLEESGGGLVQAGGSHRLSCPASGRTFYKNAMGWSRQAPRKERELVAAITSGGSTNYADSVKGRFSISRDNAKNSVYLQMNSLKSEDTAVYYCAAQQFPYYRSRFSYINKYDYWGQGTQVTVSS”, the “polyreactivity (PSR sort gate)” value is given as “high polyreactivity”.

For “QVQLEESGGGLVQAGGSLLLICADSGSILGGNAMGWYRHAPGKERQMVDAITFSGGGTYYADSVKGRFTLSRDNAKNTVYLQMNSLKPEDTAVYYCAADKDGYTYEFDYWGQGTQVTVSS”, the “polyreactivity (PSR sort gate)” value was “low polyreactivity”.

Turning to “QVQLEESGGGLVQAGGSLRISCAASGFTFSHNAMGWYRQAPGKERELVAAISKGGSSTYYADSVKGRFTISRDNAKNTVYLQMNSLKPEDTAVYYCARPSPHKGYDYWGQGTQVTVSS”, the “polyreactivity (PSR sort gate)” value is “high polyreactivity”.

As for “QVQLEESGGGLVQAGGSLRISCAASGITFDDYDMGWYRQAPGKERELVAAITWSGGSTYYADSVKGRFTSSRDNAKNTVYLQMNSLKPEVTAVSYCNAGSTWAYSYPVGKSDLDYWGQGTQVTVSS”, the “polyreactivity (PSR sort gate)” value was “low polyreactivity”.

On to “QVQLEESGGGLVQAGGSLRISCAASGSIFPSYAMGWYRQAPGKERELVAAISSRGGSTYYADSVKGRFTISRDNAKNSVYLQMNSLKPEDTAVYYCNAVAGGVYVDKGYDYWGQGTQVTVSS”, for which the “polyreactivity (PSR sort gate)” value was “high polyreactivity”.

“QVQLEESGGGLVQAGGSLRISCAASGSTYYNYAMGWYRQAPGKERELVAAISRSGITYYADSVKGRFTISRDNAKNTVYLQMNSLKPEDTAVYYCAAGRRFDQSMYYWGQGTQVTVSS”: the “polyreactivity (PSR sort gate)” value is on record as “high polyreactivity”.

Turning to “QVQLEESGGGLVQAGGSLRLICAASGGIFRYYAMGWSRQAPGKERELVAAITQSGARTYYADSVKGRFTISRDNAKNTVYLQMNSMKPEDTAVYYCAADRTGSRYNSWGQGTQVTVSS”, the “polyreactivity (PSR sort gate)” value was “high polyreactivity”.

Take “QVQLEESGGGLVQAGGSLRLSCAASGFIFPHYAMGWYLQAPGKERELVAAISKSGDSTYYADSVKGRFTISRDNAKNTVYLQMNSLKPEDTAVYYCARRGRSLRWKYDYWGQGTQVTVSS”: the “polyreactivity (PSR sort gate)” value is “low polyreactivity”.

With “QVQLEESGGGLVQAGGSLRLSCAASGFIFSSNAMGWYRQAPGKESQLVARITRSDGSTYYADSVKGRFTISRDSAKNTVYLQMNSLKPEDTAFDYCAKGRDATHYEYYLYSMDYWGQGTQVTVSS”, the “polyreactivity (PSR sort gate)” value is listed as “low polyreactivity”.

As for “QVQLEESGGGLVQAGGSLRLSCAASGFISIPYAMGWYRQAPGKERELVASITRSGGNTYYADSVKGRFTISRDNAKNTVYLQMNSLKPEDTAVYYCNVVVYRWSPVSKLDYWGQGTQVTVSS”, the “polyreactivity (PSR sort gate)” value is recorded as “high polyreactivity”.

With “QVQLEESGGGLVQAGGSLRLSCAASGFITSHYAMGWYIQAPGKERELVATISSGGSTYADSVKGRFTISRDNAKNTVYLQMNSLKPEDTAVYYCNVRLQGTYRAGVRGDYWGQVTQVTVSS”, the “polyreactivity (PSR sort gate)” value is “high polyreactivity”.

As for “QVQLEESGGGLVQAGGSLRLSCAASGFNFDVYAMGWYRQAPGKERELVAAISRSGGSTYYADSVKGRFTISRDNAKNTFYLQMNSLKPEDTAVYYCATDLLNNVDYDYWGQGTQVTVSS”, the “polyreactivity (PSR sort gate)” value is listed as “low polyreactivity”.

Consider “QVQLEESGGGLVQAGGSLRLSCAASGFNFFRNTMGGYRQAPGKERELVAGIRYSGGSTYYADSVKGRFTISRDNAKNTVYLQMNSLKPEDTAVYYCAARSHRRLMYYWGQGTQVTVSS”, for which the “polyreactivity (PSR sort gate)” value is listed as “high polyreactivity”.

As to “QVQLEESGGGLVQAGGSLRLSCAASGFNFRKNVMGWYRPAPGKERELVAAISAPGGSTYYAHSVKGRFTISRDNGKNTGYLQMYCLKPEDPAVYFCKTDGYLYQYDYWGQGTQVTVSS”, the “polyreactivity (PSR sort gate)” value was “high polyreactivity”.

Consider “QVQLEESGGGLVQAGGSLRLSCAASGFNFWVYAMGWYRQAPGKERELVAAISYNGGRTYYADSVKGRFTISRDNAKNTVYLQMNSLKPEDTAVYYCASLPAPTGRGDYWGQGTQVTVSS”, for which the “polyreactivity (PSR sort gate)” value was “high polyreactivity”.

With “QVQLEESGGGLVQAGGSLRLSCAASGFTFNYYTMGWYTQAPGKERELVATISTRGGSTYYADSVKGRFTISRDNAKNSVYLQMNSLKPEDTAVYYCNVGQKSVSSAYDYWGQGTEVTVSS”, the “polyreactivity (PSR sort gate)” value is on record as “high polyreactivity”.

As to “QVQLEESGGGLVQAGGSLRLSCAASGFTFRRYAMGWYRQAPGKERELVAVITTAGYTNYADSVKGRFTISRDNAKNSVYLQMNSLKPEDTAVYYCATDNGTRKRRYDYWGQGTQVTVSS”, the “polyreactivity (PSR sort gate)” value is reported as “low polyreactivity”.

In the case of “QVQLEESGGGLVQAGGSLRLSCAASGFTFTRNAMGWYRQAPGKERELVAAISRGGSTNYADSVQGRFRISSDNAKNTVYLQMNSLKPEDTAVYYCAKVRTRATPGVDYYYWGQGTQVTVSS”, the “polyreactivity (PSR sort gate)” value is listed as “high polyreactivity”.

With “QVQLEESGGGLVQAGGSLRLSCAASGFTFTTNAMGWYRQAPGKERELVAAISFSGGTTYYADSVKGRFTISRDNAKNTVYLQMNSLKPEDTAVYYCAAQPGQAWWSTDHDDYWGQGTQVSVSS”, the “polyreactivity (PSR sort gate)” value is reported as “low polyreactivity”.

In the case of “QVQLEESGGGLVQAGGSLRLSCAASGFTFVDYLMGWYRQAPGKERELVAAITRSGGSTYYADSVKGRFTISRDQAKNTVYLEMNSLKPEDTAVYYCAAEIRDYAKSYSFYWGQGTQVTVSS”, the “polyreactivity (PSR sort gate)” value was “high polyreactivity”.

“QVQLEESGGGLVQAGGSLRLSCAASGFTFYLYTMGWYRQAPGKERELVAAISRSGDRTYYADSVKGRFSISRDNAKNTVYLQMNSLKPEDTAVYYCAARSYRPTRGDYWGQGTQVTVSS”: the “polyreactivity (PSR sort gate)” value is given as “high polyreactivity”.

As for “QVQLEESGGGLVQAGGSLRLSCAASGFTFYSYAKGCSRQAPGKERELVAAISWSGSRTYYADSVKGRFTISRDNAKNTVYLQMNSLKPEDTAVYVCNKYLPRHRYDFDYWGQGTQVTVSS”, the “polyreactivity (PSR sort gate)” value is “high polyreactivity”.

With “QVQLEESGGGLVQAGGSLRLSCAASGFTIGVYAMGWYRQAPGKERELVAAISARGGSTYYADSVKGRFTISRDNAKKTVYLQMNSLKPEDTAVFYCAVVLKYVSADQMDYWGQGTQVTVSS”, the “polyreactivity (PSR sort gate)” value is given as “high polyreactivity”.

Take “QVQLEESGGGLVQAGGSLRLSCAASGGIFDYNSMGWYRQAPGKERELVAAISSGASTTYADSVKGRFTISRDNAKNTVYLQMNSLKPEATAVYYCAAYWKSRYLSGLEYYSWGQGTQVTVSS”: the “polyreactivity (PSR sort gate)” value is listed as “low polyreactivity”.

Consider “QVQLEESGGGLVQAGGSLRLSCAASGGIFYGYAMGWNRQAPGIERELVAAISDSGGSTYYADSVKGRFTISRDNAKNTVFLQLNSLNPEDTAVYYCATDARVGGYVSEGDFWGQGTQVTVSW”, for which the “polyreactivity (PSR sort gate)” value is reported as “low polyreactivity”.

Consider “QVQLEESGGGLVQAGGSLRLSCAASGGTFDHYTMGWYRQAPGKERELVAAISRRSGRTYYADSVKGRFTISRDKAKNTVYLQMNSLKPEDTAVYYCNADGYTRAFDYWGQGTQVTVSS”, for which the “polyreactivity (PSR sort gate)” value is listed as “high polyreactivity”.
